Measurements taken from patent US20210388087A1 (Chugai, published 2021).
Positions count from the first letter of the chain named. Values belong to the binder of their own block, whether it stands above or below them.

Target: T1, CD3 epsilon homodimer protein (UniProt P07766 23-126)
T1 construct: also called CD3 (CD3 epsilon)
Test: SPR, CD3 epsilon homodimer on chip, one-arm antibody as analyte;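 note: surface plasmon resonance at 25 °C with CD3 epsilon homodimer amine-coupled to a CM4 sensor chip, antibody injected as analyte, HBS-EP+ as running buffer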

T1 sequence (P07766 23-126): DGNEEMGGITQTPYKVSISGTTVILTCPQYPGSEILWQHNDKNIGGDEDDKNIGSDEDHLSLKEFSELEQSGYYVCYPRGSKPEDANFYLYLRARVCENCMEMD

B1: CE115HA000 A99T (antibody, human IgG1, kappa, L234A L235A, N297A, name in Kabat numbering)
heavy: QVQLVESGGGVVQPGRSLRLSCAASGFTFSNAWMHWVRQAPGKGLEWVAQIKAKSNNYATYYAESVKGRFTISRDDSKNSLYLQMNSLKTEDTAVYYCRYVHYGTYYGVDAWGQGTTVTVSSASTKGPSVFPLAPSSKSTSGGTAALGCLVKDYFPEPVTVSWNSGALTSGVHTFPAVLQSSGLYSLSSVVTVPSSSLGTQTYICNVNHKPSNTKVDKKVEPKSCDKTHTCPPCPAPEAAGGPSVFLFPPKPKDTLMISRTPEVTCVVVDVSHEDPEVKFNWYVDGVEVHNAKTKPREEQYASTYRVVSVLTVLHQDWLNGKEYKCKVSNKALPAPIEKTISKAKGQPREPQVYTLPPSRCELTKNQVSLSCAVKGFYPSDIAVEWESNGQPENNYKTTPPVLDSDGSFFLVSKLTVDKSRWQQGNVFSCSVMHEALHNHYTQKSLSLSPDYKDDDDK
chain: EPKSSDKTHTCPPCPAPELLGGPSVFLFPPKPKDTLMISRTPEVTCVVVDVSHEDPEVKFNWYVDGVEVHNAKTKPREEQYNSTYRVVSVLTVLHQDWLNGKEYKCKVSNKALPAPIEKTISKAKGQPREPQVCTLPPSRDELTKNQVSLWCLVKGFYPSDIAVEWESNGQPENNYKTTPPVLDSDGSFFLYSKLTVDKSRWQQGNVFSCSVMHEALHNRYTQKSLSLSP
light: DIVMTQSPLSLPVTPGEPASISCRSSQSLVHSNRNTYLHWYQQKPGQAPRLLIYKVSNRFSGVPDRFSGSGSGTDFTLKISRVEAEDVGVYYCGQGTQVPYTFGQGTKLEIKRTVAAPSVFIFPPSDEQLKSGTASVVCLLNNFYPREAKVQWKVDNALQSGNSQESVTEQDSKDSTYSLSSTLTLSKADYEKHKVYACEVTHQGLSSPVTKSFNRGEC
notes: one-arm antibody
- KD ratio (KD of CE115HA000/KD of altered form): 0.93

B2: CE115HA000 D72E (antibody, human IgG1, kappa, L234A L235A, N297A, name in Kabat numbering)
heavy: B1 heavy with D75E, T105A
chain: B1 chain
light: B1 light
notes: one-arm antibody
- KD ratio (KD of CE115HA000/KD of altered form): 0.73

B4: CE115HA000 D101K (antibody, human IgG1, kappa, L234A L235A, N297A, name in Kabat numbering)
heavy: B1 heavy with T105A, D110K
chain: B1 chain
light: B1 light
notes: one-arm antibody
- KD ratio (KD of CE115HA000/KD of altered form): 4.37

B5: CE115HA000 A102P (antibody, human IgG1, kappa, L234A L235A, N297A, name in Kabat numbering)
heavy: B1 heavy with T105A, A111P
chain: B1 chain
light: B1 light
notes: one-arm antibody
- KD ratio (KD of CE115HA000/KD of altered form): 3.51

B6: CE115HA000 A102I (antibody, human IgG1, kappa, L234A L235A, N297A, name in Kabat numbering)
heavy: B1 heavy with T105A, A111I
chain: B1 chain
light: B1 light
notes: one-arm antibody
- KD ratio (KD of CE115HA000/KD of altered form): 1.29

B7: CE115HA000 D101I (antibody, human IgG1, kappa, L234A L235A, N297A, name in Kabat numbering)
heavy: B1 heavy with T105A, D110I
chain: B1 chain
light: B1 light
notes: one-arm antibody
- KD ratio (KD of CE115HA000/KD of altered form): 1.73

B9: CE115HA000 D73R (antibody, human IgG1, kappa, L234A L235A, N297A, name in Kabat numbering)
heavy: B1 heavy with D76R, T105A
chain: B1 chain
light: B1 light
notes: one-arm antibody
- KD ratio (KD of CE115HA000/KD of altered form): 0.79

B10: CE115HA000 D73A (antibody, human IgG1, kappa, L234A L235A, N297A, name in Kabat numbering)
heavy: B1 heavy with D76A, T105A
chain: B1 chain
light: B1 light
notes: one-arm antibody
- KD ratio (KD of CE115HA000/KD of altered form): 0.73

B11: CE115HA000 D73N (antibody, human IgG1, kappa, L234A L235A, N297A, name in Kabat numbering)
heavy: B1 heavy with D76N, T105A
chain: B1 chain
light: B1 light
notes: one-arm antibody
- KD ratio (KD of CE115HA000/KD of altered form): 0.7

B13: CE115HA000 D72A (antibody, human IgG1, kappa, L234A L235A, N297A, name in Kabat numbering)
heavy: B1 heavy with D75A, T105A
chain: B1 chain
light: B1 light
notes: one-arm antibody
- KD ratio (KD of CE115HA000/KD of altered form): 1.19

B15: CE115HA000 A102Y (antibody, human IgG1, kappa, L234A L235A, N297A, name in Kabat numbering)
heavy: B1 heavy with T105A, A111Y
chain: B1 chain
light: B1 light
notes: one-arm antibody
- KD ratio (KD of CE115HA000/KD of altered form): 1

B16: CE115HA000 D101F (antibody, human IgG1, kappa, L234A L235A, N297A, name in Kabat numbering)
heavy: B1 heavy with T105A, D110F
chain: B1 chain
light: B1 light
notes: one-arm antibody
- KD ratio (KD of CE115HA000/KD of altered form): 0.73

B19: CE115HA000 D101A (antibody)
heavy: B1 heavy with T105A, D110A
Fc: B1 chain
light: B1 light
notes: one-arm antibody
- KD ratio (KD of CE115HA000/KD of altered form): 0.86

B21: CE115HA000 D73T (antibody, human IgG1, kappa, L234A L235A, N297A, name in Kabat numbering)
heavy: B1 heavy with D76T, T105A
chain: B1 chain
light: B1 light
notes: one-arm antibody
- KD ratio (KD of CE115HA000/KD of altered form): 0.78

B22: CE115HA000 D101L (antibody, human IgG1, kappa, L234A L235A, N297A, name in Kabat numbering)
heavy: B1 heavy with T105A, D110L
chain: B1 chain
light: B1 light
notes: one-arm antibody
- KD ratio (KD of CE115HA000/KD of altered form): 0.71

B23: CE115HA000 D73G (antibody, human IgG1, kappa, L234A L235A, N297A, name in Kabat numbering)
heavy: B1 heavy with D76G, T105A
chain: B1 chain
light: B1 light
notes: one-arm antibody
- KD ratio (KD of CE115HA000/KD of altered form): 0.78

B24: CE115HA000 D72V (antibody, human IgG1, kappa, L234A L235A, N297A, name in Kabat numbering)
heavy: B1 heavy with D75V, T105A
chain: B1 chain
light: B1 light
notes: one-arm antibody
- KD ratio (KD of CE115HA000/KD of altered form): 1.17

B25: CE115HA000 D73K (antibody, human IgG1, kappa, L234A L235A, N297A, name in Kabat numbering)
heavy: B1 heavy with D76K, T105A
chain: B1 chain
light: B1 light
notes: one-arm antibody
- KD ratio (KD of CE115HA000/KD of altered form): 0.74

B27: CE115HA000 A102V (antibody, human IgG1, kappa, L234A L235A, N297A, name in Kabat numbering)
heavy: B1 heavy with T105A, A111V
chain: B1 chain
light: B1 light
notes: one-arm antibody
- KD ratio (KD of CE115HA000/KD of altered form): 1.27

B28: CE115HA000 A99Y (antibody, human IgG1, kappa, L234A L235A, N297A, name in Kabat numbering)
heavy: B1 heavy with T105Y
chain: B1 chain
light: B1 light
notes: one-arm antibody
- KD ratio (KD of CE115HA000/KD of altered form): 1.25

B29: CE115HA000 D101G (antibody, human IgG1, kappa, L234A L235A, N297A, name in Kabat numbering)
heavy: B1 heavy with T105A, D110G
chain: B1 chain
light: B1 light
notes: one-arm antibody
- KD ratio (KD of CE115HA000/KD of altered form): 3.16

B32: CE115HA000 D73E (antibody, human IgG1, kappa, L234A L235A, N297A, name in Kabat numbering)
heavy: B1 heavy with D76E, T105A
chain: B1 chain
light: B1 light
notes: one-arm antibody
- KD ratio (KD of CE115HA000/KD of altered form): 0.56

B33: CE115HA000 D101H (antibody, human IgG1, kappa, L234A L235A, N297A, name in Kabat numbering)
heavy: B1 heavy with T105A, D110H
chain: B1 chain
light: B1 light
notes: one-arm antibody
- KD ratio (KD of CE115HA000/KD of altered form): 0.91

The remaining lines, values ahead:

- KD ratio (KD of CE115HA000/KD of altered form): 0.62
B3: CE115HA000 D101T (antibody, human IgG1, kappa, L234A L235A, N297A, name in Kabat numbering)
heavy: B1 heavy with T105A, D110T
chain: B1 chain
light: B1 light
notes: one-arm antibody

- KD ratio (KD of CE115HA000/KD of altered form): 0.97
B8: CE115HA000 D101Y (antibody, human IgG1, kappa, L234A L235A, N297A, name in Kabat numbering)
heavy: B1 heavy with T105A, D110Y
chain: B1 chain
light: B1 light
notes: one-arm antibody

- KD ratio (KD of CE115HA000/KD of altered form): 1.18
B12: CE115HA000 D101V (antibody, human IgG1, kappa, L234A L235A, N297A, name in Kabat numbering)
heavy: B1 heavy with T105A, D110V
chain: B1 chain
light: B1 light
notes: one-arm antibody

- KD ratio (KD of CE115HA000/KD of altered form): 5.56
B14: CE115HA000 D101R (antibody, human IgG1, kappa, L234A L235A, N297A, name in Kabat numbering)
heavy: B1 heavy with T105A, D110R
chain: B1 chain
light: B1 light
notes: one-arm antibody

- KD ratio (KD of CE115HA000/KD of altered form): 0.94
B17: CE115HA000 E61A (antibody, human IgG1, kappa, L234A L235A, N297A, name in Kabat numbering)
heavy: B1 heavy with E64A, T105A
chain: B1 chain
light: B1 light
notes: one-arm antibody

- KD ratio (KD of CE115HA000/KD of altered form): 43.4
B18: CE115HA000 D101P (antibody, human IgG1, kappa, L234A L235A, N297A, name in Kabat numbering)
heavy: B1 heavy with T105A, D110P
chain: B1 chain
light: B1 light
notes: one-arm antibody

- KD ratio (KD of CE115HA000/KD of altered form): 2.28
B20: CE115HA000 D101N (antibody, human IgG1, kappa, L234A L235A, N297A, name in Kabat numbering)
heavy: B1 heavy with T105A, D110N
chain: B1 chain
light: B1 light
notes: one-arm antibody

- KD ratio (KD of CE115HA000/KD of altered form): 1.94
B26: CE115HA000 D101M (antibody, human IgG1, kappa, L234A L235A, N297A, name in Kabat numbering)
heavy: B1 heavy with T105A, D110M
chain: B1 chain
light: B1 light
notes: one-arm antibody

- KD ratio (KD of CE115HA000/KD of altered form): 3.55
B30: CE115HA000 D101Q (antibody, human IgG1, kappa, L234A L235A, N297A, name in Kabat numbering)
heavy: B1 heavy with T105A, D110Q
chain: B1 chain
light: B1 light
notes: one-arm antibody

- KD ratio (KD of CE115HA000/KD of altered form): 0.91
B31: CE115HA000 D101S (antibody, human IgG1, kappa, L234A L235A, N297A, name in Kabat numbering)
heavy: B1 heavy with T105A, D110S
chain: B1 chain
light: B1 light
notes: one-arm antibody
